Reference: article PMC4344526

Tests used:
[1] = system: Csy complex (Csy1-4 + crRNA, Type I-F) (Pseudomonas aeruginosa PA14); assay: EMSA; settings: EMSA: 20 mM HEPES pH 7.5, 100 mM KCl, 5% glycerol, 1 mM TCEP, 2 mM EDTA, 37 C, 15 min (competition 5 min), SPR: 20 mM HEPES pH 7.5, 100 mM KCl, 0.02%
[2] = system: Csy complex (Csy1-4 + crRNA, Type I-F) (Pseudomonas aeruginosa PA14); assay: SPR; settings: ka 1.9e7 M-1 s-1, half-life 6.3 s, same as non-target, EMSA Kd >2 orders higher, EMSA: 20 mM HEPES pH 7.5, 100 mM KCl, 5% glycerol, 1 mM TCEP, 2 mM EDTA, 37 C, 15 min (competition 5 min), SPR: 20 mM HEPES pH 7.5, 100 mM KCl, 0.02%

Substance: dsDNA target, 7-deazaguanine PAM
- binding signal (fold increase in Kd vs N1) ([1]; both PAM guanines replaced by 7-deazaguanine): 120

Substance: dsDNA target, T-A/T-A PAM, duplexed (EMSA)
- binding signal (fold weaker vs N1) [1]: 100

Substance: dsDNA target, inosine PAM
- binding signal (fold increase in Kd vs N1) ([1]; both PAM guanines replaced by inosine): > 1000

Substance: dsDNA target, protospacer + G-C/G-C PAM
- Kd [1]: 1 nM

Substance: dsDNA target, protospacer + T-A/T-A PAM (SPR)
- Kd [2]: 6 nM

Substance: ssDNA target, protospacer + GG PAM
- Kd [1]: 0.5 nM
